Test results from patent US20160251440A1 (Ablynx, published 2016).
Numbering of substitutions follows the chain as printed.

T1: human IL12Rβ2 extracellular domain Fc-fusion (human, UniProt Q99665 24-622)
T1 construct: extracellular domain; bought; also called IL12Rβ2-Fc; hIL-12Rβ2-Fc
T1 sequence (looked up): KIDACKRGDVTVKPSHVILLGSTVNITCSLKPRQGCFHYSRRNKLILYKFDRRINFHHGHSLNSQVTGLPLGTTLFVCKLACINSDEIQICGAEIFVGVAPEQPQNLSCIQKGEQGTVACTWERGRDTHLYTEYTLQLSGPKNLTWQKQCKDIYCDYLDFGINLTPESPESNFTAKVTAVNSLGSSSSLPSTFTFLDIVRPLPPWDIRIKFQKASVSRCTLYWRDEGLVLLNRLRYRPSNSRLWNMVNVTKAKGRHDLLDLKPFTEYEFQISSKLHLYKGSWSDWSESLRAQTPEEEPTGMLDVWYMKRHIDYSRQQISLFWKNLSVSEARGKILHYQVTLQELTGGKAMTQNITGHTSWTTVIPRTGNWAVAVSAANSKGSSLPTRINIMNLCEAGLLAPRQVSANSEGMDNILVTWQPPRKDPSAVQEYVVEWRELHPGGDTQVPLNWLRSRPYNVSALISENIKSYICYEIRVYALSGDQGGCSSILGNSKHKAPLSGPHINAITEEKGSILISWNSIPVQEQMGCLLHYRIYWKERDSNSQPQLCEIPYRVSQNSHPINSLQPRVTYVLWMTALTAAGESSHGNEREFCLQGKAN

T2: human IL12Rβ2, cell-expressed (human, UniProt Q99665 24-862)
T2 sequence (looked up): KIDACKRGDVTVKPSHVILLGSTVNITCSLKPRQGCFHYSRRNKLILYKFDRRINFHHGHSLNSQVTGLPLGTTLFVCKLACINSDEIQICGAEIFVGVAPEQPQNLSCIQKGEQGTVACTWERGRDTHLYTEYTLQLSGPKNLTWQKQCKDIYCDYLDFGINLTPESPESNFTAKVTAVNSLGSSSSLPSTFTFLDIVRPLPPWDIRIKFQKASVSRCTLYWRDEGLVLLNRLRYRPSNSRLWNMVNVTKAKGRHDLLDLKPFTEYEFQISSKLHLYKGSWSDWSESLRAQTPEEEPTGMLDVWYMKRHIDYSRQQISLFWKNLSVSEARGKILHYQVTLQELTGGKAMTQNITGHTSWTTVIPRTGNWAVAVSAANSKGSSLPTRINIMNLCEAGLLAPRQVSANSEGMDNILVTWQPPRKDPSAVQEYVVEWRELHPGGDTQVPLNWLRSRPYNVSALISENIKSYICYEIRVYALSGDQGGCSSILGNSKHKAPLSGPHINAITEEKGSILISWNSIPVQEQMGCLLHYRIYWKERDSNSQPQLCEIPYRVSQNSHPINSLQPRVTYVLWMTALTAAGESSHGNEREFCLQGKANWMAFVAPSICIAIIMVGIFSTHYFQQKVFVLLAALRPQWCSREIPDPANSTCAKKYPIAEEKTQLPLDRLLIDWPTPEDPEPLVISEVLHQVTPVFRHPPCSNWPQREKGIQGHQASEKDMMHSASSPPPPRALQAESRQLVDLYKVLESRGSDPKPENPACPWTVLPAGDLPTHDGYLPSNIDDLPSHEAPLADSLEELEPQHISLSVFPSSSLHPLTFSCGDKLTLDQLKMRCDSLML

T3: human IL-23R, cell-expressed (human, UniProt Q5VWK5 24-629)
T3 sequence (looked up): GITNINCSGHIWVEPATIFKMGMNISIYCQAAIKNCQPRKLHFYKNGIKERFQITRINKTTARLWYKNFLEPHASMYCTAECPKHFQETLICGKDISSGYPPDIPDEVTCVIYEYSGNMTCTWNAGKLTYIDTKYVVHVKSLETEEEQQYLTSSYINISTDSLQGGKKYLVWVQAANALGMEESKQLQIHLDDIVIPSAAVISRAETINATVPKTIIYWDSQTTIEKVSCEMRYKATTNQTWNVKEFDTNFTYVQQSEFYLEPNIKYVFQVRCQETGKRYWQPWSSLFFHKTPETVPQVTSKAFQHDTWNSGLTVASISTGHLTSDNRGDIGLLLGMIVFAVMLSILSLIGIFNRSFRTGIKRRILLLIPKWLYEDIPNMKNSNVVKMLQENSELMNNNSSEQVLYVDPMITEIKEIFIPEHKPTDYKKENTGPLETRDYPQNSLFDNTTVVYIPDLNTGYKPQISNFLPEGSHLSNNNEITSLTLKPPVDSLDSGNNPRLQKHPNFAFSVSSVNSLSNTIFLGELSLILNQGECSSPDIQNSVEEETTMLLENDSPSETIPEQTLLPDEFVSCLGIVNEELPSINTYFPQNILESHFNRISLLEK

T4: human IL-23R extracellular domain Fc-fusion (human, UniProt Q5VWK5 24-355)
T4 construct: extracellular domain; bought; also called IL-23R-Fc
T4 sequence (looked up): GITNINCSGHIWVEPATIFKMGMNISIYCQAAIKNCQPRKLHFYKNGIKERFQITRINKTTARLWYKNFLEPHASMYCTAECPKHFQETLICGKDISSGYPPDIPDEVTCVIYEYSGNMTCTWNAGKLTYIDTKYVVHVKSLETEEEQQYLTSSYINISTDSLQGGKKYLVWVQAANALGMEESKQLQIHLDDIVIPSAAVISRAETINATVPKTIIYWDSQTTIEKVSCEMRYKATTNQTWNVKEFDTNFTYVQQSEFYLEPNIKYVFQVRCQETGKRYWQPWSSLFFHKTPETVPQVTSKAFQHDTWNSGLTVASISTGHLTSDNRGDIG

B1: IL12Rb2#1-35GS-CD4#8 (bispecific antibody)
chain: EVQLVESGGRLVQAGDSLRLSCAASGRTFISYRMGWFRQAPGKEREFVAALRWSSSNIDYTYYADSVKGRFSISGDYAKNTVYLQMNSLKAEDTAVYYCAASTRWGVMESDTEYTSWGQGTLVTVSSGGGGSGGGGSGGGGSGGGGSGGGGSGGGGSGGGGSEVQLVESGGGSVQPGGSLTLSCGTSGRTFNVMGWFRQAPGKEREFVAAVRWSSTGIYYTQYADSVKSRFTISRDNAKNTVYLEMNSLKPEDTAVYYCAADTYNSNPARWDGYDFRGQGTLVTVSS
notes: defined by its make-up (Nb1-Nb2)
B2: IL12Rb2#2-35GS-CD4#8 (bispecific antibody)
chain: B1 chain with I30T, A49S, S56G
notes: defined by its make-up
B3: CD4#8-35GS-IL12Rb2#1 (bispecific antibody)
chain: EVQLVESGGGSVQPGGSLTLSCGTSGRTFNVMGWFRQAPGKEREFVAAVRWSSTGIYYTQYADSVKSRFTISRDNAKNTVYLEMNSLKPEDTAVYYCAADTYNSNPARWDGYDFRGQGTLVTVSSGGGGSGGGGSGGGGSGGGGSGGGGSGGGGSGGGGSEVQLVESGGRLVQAGDSLRLSCAASGRTFISYRMGWFRQAPGKEREFVAALRWSSSNIDYTYYADSVKGRFSISGDYAKNTVYLQMNSLKAEDTAVYYCAASTRWGVMESDTEYTSWGQGTLVTVSS
notes: defined by its make-up
B4: CD4#8-35GS-IL12Rb2#2 (bispecific antibody)
chain: B3 chain with I190T, A209S, S216G
notes: defined by its make-up
B5: CD4#8-35GS-IL23R#19 (bispecific antibody)
chain: EVQLVESGGGSVQPGGSLTLSCGTSGRTFNVMGWFRQAPGKEREFVAAVRWSSTGIYYTQYADSVKSRFTISRDNAKNTVYLEMNSLKPEDTAVYYCAADTYNSNPARWDGYDFRGQGTLVTVSSGGGGSGGGGSGGGGSGGGGSGGGGSGGGGSGGGGSEVQLVESGGGLVQPGGSLTLSCVASGRTFSTDVMGWFRQAPGKEREFVAAHRTSGISTVYAASVKGRFTISRDNAKNTVYLGMKSLKPEDTAVYVCAAGSDASGGYDYWGQGTLVTVSS
notes: also called BI#45; T023200045
B6: IL23R#19-35GS-CD4#8 (bispecific antibody)
chain: EVQLVESGGGLVQPGGSLTLSCVASGRTFSTDVMGWFRQAPGKEREFVAAHRTSGISTVYAASVKGRFTISRDNAKNTVYLGMKSLKPEDTAVYVCAAGSDASGGYDYWGQGTLVTVSSGGGGSGGGGSGGGGSGGGGSGGGGSGGGGSGGGGSEVQLVESGGGSVQPGGSLTLSCGTSGRTFNVMGWFRQAPGKEREFVAAVRWSSTGIYYTQYADSVKSRFTISRDNAKNTVYLEMNSLKPEDTAVYYCAADTYNSNPARWDGYDFRGQGTLVTVSS
notes: also called BI#42; T023200042
B7: IL23R#20: 150H07 (VHH)
VHH: EVQLVESGGGLVQAGGSLRLSCAASGRTFSSYAMGWFRQAPGKDREFVAAISWIGESTYYADSVKGRFTISRDNAKNTVYLRMNSLKPEDTAVYYCAADLYYTAYVAAADEYDYWGQGTLVTVSS
notes: bispecifics print NAKNTVY where this entry prints NAKNIVY; also called LG150H07

Legend:
[1] = target: T5, human IL12Rβ1, cell-expressed (human, UniProt P42701 24-662); assay: flow cytometry on isolated CD8+ T cells of donor D863, anti-Flag detection
T5 construct: whole, on cells; in the context of the heterodimeric receptor; also called IL12Rb1

[2] = target: T1, human IL12Rβ2 extracellular domain …; assay: competition ELISA, ratio to monovalent IL12Rb2#1
[3] = target: T2, human IL12Rβ2, cell-expressed; assay: cell-based or functional assay
[4] = target: T1, human IL12Rβ2 extracellular domain …; assay: competition ELISA, coated IL-12 + IL12Rβ2-Fc
[5] = target: T6, human CD4, cell-expressed (human, UniProt P01730 26-458); assay: flow cytometry on MOLM-13 cells (CD4, no IL12R or IL23R), upper left panel
T6 construct: whole, on cells

[6] = target: T6, human CD4, cell-expressed; assay: flow cytometry on activated T cells of donor D838 (very high CD4, moderate IL12R), upper left panel
[7] = target: T1, human IL12Rβ2 extracellular domain …; assay: competition ELISA, ratio to monovalent IL12Rb2#2
[8] = target: T3, human IL-23R, cell-expressed; assay: cell-based or functional assay
[9] = target: T4, human IL-23R extracellular domain …; assay: competition ELISA, coated IL-23 + IL-23R-Fc
[10] = target: T6, human CD4, cell-expressed; assay: flow cytometry on MOLM-13 cells (CD4, no IL12R or IL23R), upper right panel
[11] = target: T6, human CD4, cell-expressed; assay: flow cytometry on activated T cells of donor D838 (very high CD4), lower left panel
[12] = target: T4, human IL-23R extracellular domain …; assay: competition ELISA, ratio to monovalent IL23R#19
[13] = target: T4, human IL-23R extracellular domain …; assay: competition ELISA, coated IL-23 + 5 nM IL-23R-Fc
[14] = target: T4, human IL-23R extracellular domain …; assay: SPR Biacore T100, captured IL-23R-Fc

Row | Binder | IC50, IFNγ release, PBMC D840 [3] | IC50, IFNγ release, T cells D839 [3] | fold ctrl, IFNγ release, PBMC D840 [3] | fold ctrl, IFNγ release, T cells D839 [3] | IC50 [4] | EC50 (read off the curve) [5] | EC50 (read off the curve) [6] | IC50 [9] | further results
1 | B1 | 1.1 nM | 0.11 nM | 11 fold | 400 fold | 4.8 nM | ~1 nM | ~1 nM |  | binding result [1]: no binding (tested: 250 nM); fold ctrl [2]: 0.9 fold
2 | B2 | 1.6 nM | 0.031 nM | 30 fold | 1130 fold | 11 nM | ~1 nM | ~1 nM |  | fold ctrl [7]: 1.4 fold
3 | B3 | 1.9 nM | 0.78 nM | 8 fold | 74 fold | 10 nM | ~1 nM | ~1 nM |  | fold ctrl [2]: 0.4 fold
4 | B4 | 2.1 nM | 0.76 nM | 8 fold | 130 fold | 25 nM | ~1 nM | ~1 nM |  | fold ctrl [7]: 0.6 fold
5 | B5 |  |  |  |  |  |  |  | 6.6 nM | IC50, IL-17 release, PBMC D840 [8]: 24.2 nM; fold ctrl, IL-17 release [8]: 4.1 fold; EC50 (read off the curve) [10]: ~1 nM; EC50 (read off the curve) [11]: ~1 nM; fold ctrl [12]: 0.3 fold
6 | B6 |  |  |  |  |  |  |  | 6.1 nM | binding result [1]: no binding (tested: 250 nM); EC50 (read off the curve) [10]: ~4 nM; EC50 (read off the curve) [11]: ~1 nM; fold ctrl [12]: 0.3 fold
7 | B7 |  |  |  |  |  |  |  | 16 nM | IC50 [13]: 16 nM; binding result [10]: no binding (tested: 1E-6 M); Kd [14]: 78 nM; koff [14]: 0.23 s⁻¹; kon [14]: 3e+06 M⁻¹ s⁻¹
